Measured values published in IntAct's records for PubMed 16249186.

B1: Retinoblastoma-associated protein (Homo sapiens), P06400 (parent)
chain: MPPKTPRKTAATAAAAAAEPPAPPPPPPPEEDPEQDSGPEDLPLVRLEFEETEEPDFTALCQKLKIPDHVRERAWLTWEKVSSVDGVLGGYIQKKKELWGICIFIAAVDLDEMSFTFTELQKNIEISVHKFFNLLKEIDTSTKVDNAMSRLLKKYDVLFALFSKLERTCELIYLTQPSSSISTEINSALVLKVSWITFLLAKGEVLQMEDDLVISFQLMLCVLDYFIKLSPPMLLKEPYKTAVIPINGSPRTPRRGQNRSARIAKQLENDTRIIEVLCKEHECNIDEVKNVYFKNFIPFMNSLGLVTSNGLPEVENLSKRYEEIYLKNKDLDARLFLDHDKTLQTDSIDSFETQRTPRKSNLDEEVNVIPPHTPVRTVMNTIQQLMMILNSASDQPSENLISYFNNCTVNPKESILKRVKDIGYIFKEKFAKAVGQGCVEIGSQRYKLGVRLYYRVMESMLKSEEERLSIQNFSKLLNDNIFHMSLLACALEVVMATYSRSTSQNLDSGTDLSFPWILNVLNLKAFDFYKVIESFIKAEGNLTREMIKHLERCEHRIMESLAWLSDSPLFDLIKQSKDREGPTDHLESACPLNLPLQNNHTAADMYLSPVRSPKKKGSTTRVNSTANAETQATSAFQTQKPLKSTSLSLFYKKVYRLAYLRLNTLCERLLSEHPELEHIIWTLFQHTLQNEYELMRDRHLDQIMMCSMYGICKVKNIDLKFKIIVTAYKDLPHAVQETFKRVLIKEEEYDSIIVFYNSVFMQRLKTNILQYASTRPPTLSPIPHIPRSPYKFPSSPLRIPGGNIYISPLKSPYKISEGLPTPTKMTPRSRILVSIGESFGTSEKFQKINQMVCNSDRVLKRSAEGSNPPKPLKKLRFDIEGSDEADGSKHLPGESKFQQKLAEMTSTRTRMQKQKMNDSMDTSNKEEK
partner: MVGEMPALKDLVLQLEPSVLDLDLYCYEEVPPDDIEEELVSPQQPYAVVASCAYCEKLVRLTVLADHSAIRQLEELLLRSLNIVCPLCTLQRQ
B2: Protein E7 (Human papillomavirus type 1a), P06465 (parent)
chain: B1 partner
B3: Protein E7 (Human papillomavirus type 1a), P06465 (parent)
chain: B1 partner
partner: B1 chain

Variants of: B1
Details: with ve7_hpv1 E7, P06465

Variant	effect of a mutation on the interaction
K810E;K814E;K824E	disrupting interaction

Variants of: B2
Details: with e2f3_human E2F3, O00716
Sequence of e2f3_human E2F3, O00716 (O00716 whole entry): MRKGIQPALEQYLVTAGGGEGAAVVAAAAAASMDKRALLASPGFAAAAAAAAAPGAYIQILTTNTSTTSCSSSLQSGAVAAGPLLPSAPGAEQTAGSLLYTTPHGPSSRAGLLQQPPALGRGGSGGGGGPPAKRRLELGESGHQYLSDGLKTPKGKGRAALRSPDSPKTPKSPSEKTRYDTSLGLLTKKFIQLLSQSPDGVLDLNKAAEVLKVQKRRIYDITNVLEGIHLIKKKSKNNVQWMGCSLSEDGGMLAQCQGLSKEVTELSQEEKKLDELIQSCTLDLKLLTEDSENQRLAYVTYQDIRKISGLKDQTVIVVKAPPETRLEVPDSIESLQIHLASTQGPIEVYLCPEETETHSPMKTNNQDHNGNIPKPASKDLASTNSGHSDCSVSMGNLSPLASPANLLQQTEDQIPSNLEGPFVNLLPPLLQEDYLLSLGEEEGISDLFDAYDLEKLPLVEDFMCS

Variant	effect of a mutation on the interaction
L61E	decreasing interaction
R60E	decreasing interaction

Variants of: B3
Details: with rb_human RB1, P06400

Variant	effect of a mutation on the interaction
E74R;E75R	decreasing interaction
